Data set [1] concerns the target TaVTC2-GST (wheat (Triticum aestivum)). As to the kind of experiment: ITC; ITC 200 Micro Calorimeter, 20 °C; 10 mM Tris-HCl, 150 mM sodium chloride, pH 7.5; one-set-of-sites model; which protein was in the syringe is not given.
Data set [2] deals with T1, TaVTC2 (Triticum aestivum, UniProt A0A650C200).
T1 construct: gene GGP2-D; full-length CDS; recombinant GST fusion (TaVTC2-GST) from E. coli BL21
T1 sequence (A0A650C200 1-431): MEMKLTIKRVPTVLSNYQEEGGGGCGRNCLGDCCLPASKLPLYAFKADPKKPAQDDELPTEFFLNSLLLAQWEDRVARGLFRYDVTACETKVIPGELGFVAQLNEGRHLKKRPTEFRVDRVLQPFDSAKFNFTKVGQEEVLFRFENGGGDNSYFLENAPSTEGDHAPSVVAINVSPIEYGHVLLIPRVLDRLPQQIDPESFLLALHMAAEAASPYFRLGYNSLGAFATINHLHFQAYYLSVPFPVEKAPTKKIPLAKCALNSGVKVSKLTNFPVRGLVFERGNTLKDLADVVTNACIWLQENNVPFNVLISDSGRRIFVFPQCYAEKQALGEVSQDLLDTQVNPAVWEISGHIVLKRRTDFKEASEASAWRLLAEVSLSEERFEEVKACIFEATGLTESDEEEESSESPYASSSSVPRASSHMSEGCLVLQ
The data set can be described thus: microscale thermophoresis. It is filed as binding. (In MST a laser heats a spot of the sample, and binding alters the fluorescence response.)

For data set [3], the target named is T2, NIb-His (wheat yellow mosaic virus (WYMV)).
T2 chain: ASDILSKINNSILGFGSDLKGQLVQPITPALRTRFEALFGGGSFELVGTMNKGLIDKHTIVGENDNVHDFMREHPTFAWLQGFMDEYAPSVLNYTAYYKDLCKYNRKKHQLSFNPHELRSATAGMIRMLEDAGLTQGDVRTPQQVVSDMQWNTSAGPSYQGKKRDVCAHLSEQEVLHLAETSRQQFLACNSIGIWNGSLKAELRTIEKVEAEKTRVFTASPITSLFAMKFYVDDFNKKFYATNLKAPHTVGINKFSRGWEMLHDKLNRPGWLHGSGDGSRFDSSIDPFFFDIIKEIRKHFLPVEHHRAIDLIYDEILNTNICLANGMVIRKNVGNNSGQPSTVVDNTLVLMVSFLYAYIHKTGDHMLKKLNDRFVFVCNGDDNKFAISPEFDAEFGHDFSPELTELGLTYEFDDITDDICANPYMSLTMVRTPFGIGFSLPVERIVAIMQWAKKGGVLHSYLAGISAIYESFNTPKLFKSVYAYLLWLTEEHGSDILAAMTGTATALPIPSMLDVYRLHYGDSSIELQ
As to the kind of experiment: ITC.

Substrate in data set [4]: Nc1nc2c(ncn2[C@@H]2O[C@H](COP(=O)(O)OP(=O)(O)O[C@H]3O[C@@H](CO)[C@@H](O)[C@@H](O)[C@@H]3O)[C@@H](O)[C@H]2O)c(=O)[nH]1
The data set can be described thus: purified protein. The conditions noted are these: 5 mM K2HPO4, 2.5 mM MgCl2, 50 mM KCl, 50 mM HEPES pH 6.9, 20 °C. It is filed as biochemical, Triticum aestivum.

For orientation: Kd means the free concentration of one partner at which half of the binding sites on the other are occupied at equilibrium, for simple one-to-one binding. Low readings indicate tighter binding, high ones weaker binding. A word on the Km: it is the substrate concentration at which the rate is half of its maximum.

As to NIb-His (natural protein), the Ka in data set [1] was found to be 167000 M⁻¹.

In turn, `Nc1nc2c(ncn2[C@@H]2O[C@H](COP(=O)(O)OP(=O)(O)O[C@H]3O[C@@H](CO)[C@@H](O)[C@@H](O)[C@@H]3O)[C@@H](O)[C@H]2O)c(=O)[nH]1` [GDP-L-galactose] gave an equilibrium dissociation constant (Kd) in data set [2] of 2.7 µM.

B1: TaVTC2-GST (enzyme)
chain: T1 sequence (A0A650C200 1-431)
With B1, the Kd in data set [3] stood at 5.98 µM. Moreover, the Km in data set [4] was found to be 78 ± 22.9 µM.

(Values after PMC10106851, “Wheat yellow mosaic virus NIb targets TaVTC2 to elicit broad‐spectrum pathogen resistance in wheat” (Plant Biotechnology Journal, 2023).)
